Measured values as given in publication PMC6628129 (Biology, 2019).

Biological target: T1, Prostacyclin synthase (PTGIS), truncated, His-tagged, with Avi-tag, biotinylated (UniProt Q16647 1-500, biotin (in vivo biotinylation of the Avi-tag))
T1 construct: Prostacyclin synthase (PTGIS; EC 5.3.99.4), truncated (by the membrane domain); Held on the streptavidin (SA) chip; also called biotinylated PTGIS; PTGIS immobilized on the optical chip; source: E. coli BL21(DE3), purified (Ni-NTA, SEC)
T1 sequence (looked up): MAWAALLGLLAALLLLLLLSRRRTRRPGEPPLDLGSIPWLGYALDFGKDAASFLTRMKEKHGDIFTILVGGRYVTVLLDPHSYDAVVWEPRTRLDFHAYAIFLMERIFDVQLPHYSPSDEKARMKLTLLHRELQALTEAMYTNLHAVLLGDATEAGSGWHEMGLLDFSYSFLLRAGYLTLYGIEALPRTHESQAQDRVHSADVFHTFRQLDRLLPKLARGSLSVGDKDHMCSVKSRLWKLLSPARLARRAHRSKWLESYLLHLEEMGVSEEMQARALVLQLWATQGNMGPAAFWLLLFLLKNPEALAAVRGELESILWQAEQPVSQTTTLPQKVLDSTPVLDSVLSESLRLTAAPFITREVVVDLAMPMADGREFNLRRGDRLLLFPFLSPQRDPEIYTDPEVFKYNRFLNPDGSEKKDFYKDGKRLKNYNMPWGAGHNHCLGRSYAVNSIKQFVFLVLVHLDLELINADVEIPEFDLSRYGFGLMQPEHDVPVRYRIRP
Assay: SPR; biotinylated PTGIS on a streptavidin (SA) chip, purified protein injected as analyte; 25 °C, Biacore T-200
Details: both partners purified

Kd: 200 nM
B1: Cytochrome P450 2J2 (CYP2J2), truncated and His-tagged (enzyme)
chain: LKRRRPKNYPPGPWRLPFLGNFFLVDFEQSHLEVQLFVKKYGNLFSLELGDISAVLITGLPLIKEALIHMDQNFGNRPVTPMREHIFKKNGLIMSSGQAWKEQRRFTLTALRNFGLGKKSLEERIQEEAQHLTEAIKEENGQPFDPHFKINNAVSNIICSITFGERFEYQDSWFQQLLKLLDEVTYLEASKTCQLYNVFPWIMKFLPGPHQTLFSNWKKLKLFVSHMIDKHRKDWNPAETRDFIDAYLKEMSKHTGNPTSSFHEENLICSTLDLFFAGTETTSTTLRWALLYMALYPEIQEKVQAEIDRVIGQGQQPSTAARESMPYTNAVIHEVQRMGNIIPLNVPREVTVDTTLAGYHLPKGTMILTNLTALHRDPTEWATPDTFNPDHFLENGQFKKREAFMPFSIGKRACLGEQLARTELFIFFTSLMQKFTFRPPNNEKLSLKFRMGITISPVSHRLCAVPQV
